According to patent publication US20260234247A1 (published 2026):
Changes are numbered by the printed parent chain.

B1: LK-RB1-12 (antibody, human IgG4 S228P, kappa, V domains shown)
VH: QVQLQQSGTELVRPGSSVMISCKASGYAFSTYWMDWVKQRPGQGLEWIGQIYPGDGATNYNGKFKGKATLTADKSSITAYMHLSSLTSEDSAVYFCLRSRDYDGWFFDVWGAGTTVTVSS
VL: DIVMTQSHKFMSTSIGDRVSITCKASQDVSSAVAWYQQKPGQSPKLLIYWASTRHTGVPDRFTGSGSGTDYTLTFSSVQAEDLALYYCQQHYSTPWTFGGGTKLEIKR
B2: LK-RB1-16 (antibody, human IgG4 S228P, kappa, V domains shown)
VH: QVQLKESGPGLVAPSQSLSITCTVSGFSLISNAISWVRQPPGKGLEWLGVIWGDGNTIYHSALRSRLTISKDNSKSQVFLKLNSLQIDDTATYYCAKANWDGYYFDYWGQGTTLTVSS
VL: DIQMNQSPSSLSASLGDTITITCHASQSVDFWLNWYQQKPGNIPKLLISKASNLHTGVPSRFSGSGSGTTFTLTISSLQPEDIATYYCQQGQSYPLTFGSGTKLEIKR
B3: LK-RB1-33 (antibody, human IgG4 S228P, kappa, V domains shown)
VH: QIQLVQSGPELKKPGDTVKISCKASGYTFTSYGMNWVKQAPGEGLKWMGWINTYSGVPTYGDDFKGRFAFSLETSASTAYLQINNLENEDTATYFCARRGRDSVVGHFDVWGTGTTVTVSS
VL: B1 VL with I15V, S30N, S31T, Y71F, F75I, S93T, T94I, W96F, G100S, K103R
B4: LK-RB1-31 (antibody, human IgG4 S228P, kappa, V domains shown)
VH: QVQLKESGPGLVAPSQSLSITCTVSGFSLTSYGVSWVRQPPGKGLEWLGIIWGDGSTNYHSALKSRLSISKDNSKSQVFLKLNSLQTEDTATYYCAKPNWDYYAMDYWGQGTSVTVSS
VL: DIQMTQTTSSLSASLGDRVTISCRASQDISNYLNWYLQKPDGTVKLLIYYTSRLHSGVPSRFSGSGSGTDYSLTISNLEQEDIATYFCQQGITLPCTFGGGTKLEIKR
B5: LK-RB1-47 (antibody, human IgG4 S228P, kappa, V domains shown)
VH: QIQLVQSGPELKKPGETVKISCKASGYTFTTYGMSWVKQAPGKGLKWMGWINTYSGVPTYTDDFKGRFAFSVETSASTAYLQINNLKNEDTATYFCARRERDFYGNIFFPYWGQGSLVTVSA
VL: B4 VL with L37Q, L54I, Y71F, E79D, I92H, C96W, L104V
B6: LK-RB1-11 (antibody, human IgG4 S228P, kappa, V domains shown)
VH: QVTLKESGPGILQPSQTLSLTCSFSGFSLKTSGMSVGWIRQPSGKGLEWLAHIWWNDDKYYNPVLKGRLTISKDTSNNLVFLKIASVVSTDTATYYCVRYGNSHGYWYFDVWGTGTTVTVSS
VL: NIVLTQSPASLAVSLGQRATISCRASESVDSYGNNFIHWYQQKPGQPPKVLIYYASNLEAGVPARFSGSGSRTDFTLTIDPVEAEDAATYYCQQNNEDPYTFGGGTKLEIER
notes: Anti-LILRB1 antibody
B7: LK-RB1-50 (antibody, human IgG4 S228P, kappa, V domains shown)
VH: QVQLKQSGPGLVQPSQSLSITCTVSGFSLTSYGVHWVRQSPGKGLEWLGVIWRGGNTDYNAPFVSRLSITKDNSQSQVFFKMNSLEADDTAIYYCAKNSLDVYSSWYFDVWGTGTTVTVSS
VL: QIVLSQSPAILSAFPGEKVTMTCRASSSVSFMHWYQQKPGSSPKPWIYATSNLASGVPARFSGSGSGTSYSLTISRVEAEDAATYYCQQWSSNPLTFGAGTKLELKR
notes: Anti-LILRB1 antibody
B8: LK-RB1-51 (antibody, human IgG4 S228P, kappa, V domains shown)
VH: QVQIQQSGAELVKPGASVKLSCKASGYTFTEFPIHWIKQRSGQGLEWIGWFYPGSDNMNYNEKFKDKATLTADKSSSTVYMELSRLTSEDSAVYFCARHENAYFYAMDYWGQGTSVTVSS
VL: ENVLTQSPAIMSASLGEKVTMSCRASSSVNYMYWYQQKSDASPKIWIYYTSNLAPGVPARFSGSGSGNSYSLTISSMEGEDAATYYCQQFTSSPFTFGTGTKLEIKR
notes: Anti-LILRB1 antibody
B9: LK-RB1-54 (antibody, human IgG4 S228P, kappa, V domains shown)
VH: DVQLQESGPGLVKPSQSLSLTCSVTGYSITSGFYWNWIRQFPGNKLEWMGHISYDGTNNYNPSLKNRISITRDTSKNLFFLKLNSVTTEDTATFHCARGGYGGSYGFDYWGQGTTLTVSS
VL: B8 VL with I45L, A59V, F95W, T99G
notes: Anti-LILRB1 antibody
B10: LK-RB1-58 (antibody, human IgG4 S228P, kappa, V domains shown)
VH: QVQLKQSGPGLVQPSQSLSITCTVSGFSLTTYGVHWVRQSPGKGLEWLGVIWRGGSTDYNAAFMSRLSITKDNSKSQVFFRMNSLQADDTARYYCAKNSLYYGSSWYFDVWGTGTTVTVSS
VL: B7 VL with F14S, L95P, A99G, L105I
notes: Anti-LILRB1 antibody
B11: hz73D1.v1 (antibody, human IgG4 S228P, kappa, V domains shown)
VH: QVQLVQSGAEVKKPGASVKVSCKASGYTFTDYYINWVRQAPGQGLEWMGNVNPNDGGTTYNQKFKGRVTMTTDTSTSTAYMELRSLRSDDTAVYYCARREIYFYGTIYYYAMDYWGQGTLVTVSS
VL: DIQLTQSPSFLSASVGDRVTITCRASESVDYYGNSFMYWYQQKPGKAPKLLIYFASNLESGVPSRFSGSGSGTEFTLTISSLQPEDFATYYCQQNNEDPWTFGGGTKVEIKR

Molecular target: T1, human LILRB1 (human, UniProt Q8NHL6 24-458, limits assumed)
T1 construct: also called hLILRB1
T1 sequence (Q8NHL6 24-458 limits assumed): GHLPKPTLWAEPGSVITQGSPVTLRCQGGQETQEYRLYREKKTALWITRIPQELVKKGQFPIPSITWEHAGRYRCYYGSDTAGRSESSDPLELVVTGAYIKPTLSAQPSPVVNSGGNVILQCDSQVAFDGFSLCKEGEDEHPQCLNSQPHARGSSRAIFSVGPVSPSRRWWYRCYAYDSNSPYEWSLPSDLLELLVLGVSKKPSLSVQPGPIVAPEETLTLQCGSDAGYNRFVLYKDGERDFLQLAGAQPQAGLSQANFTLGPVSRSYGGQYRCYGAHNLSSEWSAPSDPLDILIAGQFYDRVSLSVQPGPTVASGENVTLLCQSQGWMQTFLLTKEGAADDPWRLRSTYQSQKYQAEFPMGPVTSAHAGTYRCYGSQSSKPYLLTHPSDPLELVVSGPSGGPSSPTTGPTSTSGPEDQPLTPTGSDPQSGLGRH
Experiment: Octet off-rate ranking;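 further: antibody dissociation rate constants against cynomolgus LILRB2 plus human LILRB1, LILRB2, LILRA1 and LILRA2, measured on an Octet instrument to rank binding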
From the text: Binding affinity of anti-LILRB1 and anti-LILRB2 antibodies against human LILRB1, LILRB2, LILRA1, LILRA2 and cynomolgus LILRB2 was ranked by measuring dissociation rate constant (Kdis) using the Octet system.

Binder	koff [s⁻¹]
B1	0.00126
B2	5.92e-05
B3	0.000155
B4	6.77e-05
B5	0.000828

Molecular target: T2, Rhesus LILRB1 (F7H3G7) on CHOK1 cells (rhesus macaque)
T2 construct: whole, on cells; also called CHOK1-Rhesus LILRB1 (F7H3G7)
Experiment: flow cytometry on CHOK1-rhesus LILRB1 (F7H3G7) cells

Binder	EC50 [µM]
B6	0.00078
B7	19.9
B8	26.6
B9	24.2
B10	17.9
B11	0.00125

Molecular target: T3, Biotinylated LILRB1 (UniProt Q8NHL6 24-458, limits assumed, biotinylated (sites not given))
T3 sequence (Q8NHL6 24-458 limits assumed): as above
Experiment: epitope binning ELISA, coated 1 ug/ml; competitor 15G8 at 20 ug/ml

Binder	Inhibition % [%]
B1	-9.78
B2	0.37
B3	72.2
B4	-1.73
B5	5.8

Molecular target: T3, Biotinylated LILRB1
Experiment: epitope binning ELISA, coated 1 ug/ml; competitor LK-RB1-9 at 20 ug/ml
Method: (§1) Binding epitope of a subset of anti-LILRB1 and anti-LILRB2 antibodies was analyzed by epitope binning ELISA. Briefly, a panel of testing antibodies were coated onto ELISA plate. 50 ul/well Biotinylated LILRB1 or LILRB2 and 50 ul/well of competing antibodies were added to the coated plate and incubated at 37° C. for 1 hour. After Streptavidin-HRP (1:5000) incubation and TMB development, the plates were read at 450 nm using Molecular device spectra max plus384.

Binder	Inhibition % [%]
B1	84.5
B2	0.98
B3	94.8
B4	10.5
B5	31.8

Molecular target: T3, Biotinylated LILRB1
Experiment: epitope binning ELISA, coated 1 ug/ml; competitor LK-RB1-12 at 20 ug/ml
Method: as §1

Binder	Inhibition % [%]
B1	90.3
B2	12.5
B3	68.8
B4	87.4
B5	82.1

Molecular target: T3, Biotinylated LILRB1
Experiment: epitope binning ELISA, coated 1 ug/ml; competitor LK-RB1-16 at 20 ug/ml
Method: as §1

Binder	Inhibition % [%]
B1	88
B2	42.9
B3	3.49
B4	75.7
B5	1.24

Molecular target: T3, Biotinylated LILRB1
Experiment: epitope binning ELISA, coated 1 ug/ml; competitor LK-RB1-31 at 20 ug/ml
Method: as §1

Binder	Inhibition % [%]
B1	83
B2	3.39
B3	4.35
B4	64.4
B5	0.59

Molecular target: T3, Biotinylated LILRB1
Experiment: epitope binning ELISA, coated 1 ug/ml; competitor LK-RB1-33 at 20 ug/ml
Method: as §1

Binder	Inhibition % [%]
B1	75.3
B2	-0.04
B3	96
B4	1.14
B5	21.7

Molecular target: T3, Biotinylated LILRB1
Experiment: epitope binning ELISA, coated 1 ug/ml; competitor LK-RB1-47 at 20 ug/ml
Method: as §1

Binder	Inhibition % [%]
B1	83.2
B2	2.23
B3	96.5
B4	5.86
B5	89.8

Molecular target: T3, Biotinylated LILRB1
Experiment: epitope binning ELISA, coated 1 ug/ml; competitor hz73D1.v1 at 20 ug/ml
Method: as §1

Binder	Inhibition % [%]
B1	77.3
B2	1.48
B3	88.7
B4	54.1
B5	74.8
